Source: patent US20140341916A1, “THERAPEUTIC COMBINATIONS AND METHODS OF TREATING MELANOMA” (Genentech, Inc., priority 2011, published 2014)

T1: ETBR (Homo sapiens, UniProt P24530)
T1 sequence (P24530 27-442): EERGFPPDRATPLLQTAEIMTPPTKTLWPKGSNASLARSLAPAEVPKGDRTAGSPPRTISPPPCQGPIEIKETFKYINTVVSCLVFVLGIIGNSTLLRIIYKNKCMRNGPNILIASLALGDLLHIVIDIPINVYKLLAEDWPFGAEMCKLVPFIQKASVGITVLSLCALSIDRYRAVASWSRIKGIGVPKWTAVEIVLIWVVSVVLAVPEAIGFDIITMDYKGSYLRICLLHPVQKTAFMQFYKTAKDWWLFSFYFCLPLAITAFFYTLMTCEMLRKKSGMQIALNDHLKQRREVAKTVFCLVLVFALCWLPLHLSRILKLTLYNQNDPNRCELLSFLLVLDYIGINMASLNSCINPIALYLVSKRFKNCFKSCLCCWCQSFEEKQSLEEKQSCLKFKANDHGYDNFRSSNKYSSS

B1: Hu5E9v1-ADC: anti-ETBR antibody Hu5E9v1 conjugated to MMAE through a vc linker (antibody drug conjugate) (conjugate)
VH: EVQLVESGGGLVQPGGSLRLSCAASGYTFTSYWMQWVRQAPGKGLEWIGTIYPGDGDTSYAQKFKGRATLSTDKSKNTAYLQMNSLRAEDTAVYYCARWGYAYDIDNWG
VL: DIQMTQSPSSLSASVGDRVTITCKSSQSLLDSDGKTYLNWLQQKPGKAPKRLIYLVSKLDSGVPSRFSGSGSGTDFTLTISSLQPEDFATYYCWQGTHFPYTFGQGTKVEIK

How the values were obtained:
[1] = test system: UACC-257X2.2 melanoma xenograft; assay: In vivo efficacy, subcutaneous melanoma xenograft, tumor volume / % TGI; design: species or system mice; settings: for % TGI Single Agent BRAFi vs. control / % TGI Single Agent Anti-ETBR ADC vs. control: UACC257-X2.2
Protocol: (§1) Next, efficacy studies were performed using the melanoma cells lines in the xenografts mouse models described above. All studies were conducted in accordance with the Guide for the Care and Use of Laboratory Animals (Ref: Institute of Laboratory Animal Resources (NIH publication no. 85-23), Washington, D.C.: National Academies Press; 1996). 10- to 14-week-old female CRL Nu/Nu or NCr nude mice from Charles River Laboratories were inoculated subcutaneously in the dorsal right flank with either 5×10^6 UACC-257X2.2 cells in HBSS with Matrigel or 5×10^6 A2058 cells in HBSS with Matrigel. When tumor volumes reached approximately 200 mm^3 (day 0), animals were randomized into groups of 10 each.
(§2) For single agent efficacy studies, the anti-ETBR ADC candidate Hu5E9v1-ADC was administered as a single intravenous (IV) injection on day 0 at 1 mpk, 3 mpk, or 6 mpk (mg/kg). A control ADC antibody and vehicle control were also administered. Average tumor volumes with standard deviations were determined from 10 animals per group. Tumor volumes were measured twice per week until study end.
To do this, the in vivo efficacy for various combinations of Hu5E9v1-ADC and BRAFi-945 were evaluated against the UACC-257X2.2 melanoma model described above. Tumors were grown to an average size of approximately 200 mm^3, whereupon animals were randomized into groups of 10 each. An appropriate vehicle control (Klucel LF) or BRAFi-945 at doses of 1 mpk, 6 mpk or 20 mpk were administered orally once a day×21 days beginning on study Day 0. A single 1 mpk or 3 mpk dose of Hu5E9v1-ADC or control, a histidine buffer #8, was administered intraveneously (after two doses of 945) via tail vein at study Day 1.
(§3) The average tumor volumes were determined from 10 animals per group. Tumor volumes were measured twice per week until study end. Tumor volumes were measured in two dimensions (length and width) using UltraCal IV calipers (Model 54 10 111, Fred V. Fowler Company; Newton, Mass.). The following formula was used with Excel, version 12.2.8 (Microsoft; Redmond, Wash.) to calculate tumor volume: Tumor Volume (mm3)=[…]
(§4) To analyze the repeated measurement of tumor volumes from the same animals over time, a mixed-modeling Linear Mixed Effects (LME) approach was used (Pinheiro et al. 2009). This approach can address both repeated measurements and a modest drop-out rate due to non-treatment-related termination of animals prior to study end. Cubic regression splines were used to fit a non-linear profile to the time courses of log 2 tumor volume at each dose level. These non-linear profiles were then related to dose within the mixed model. Tumor growth inhibition (TGI) as a percentage of vehicle was calculated as percent area under the fitted curve (AUC) per day in relation to the vehicle, using the following formula:
(§5) Using this formula, a TGI value of 100% indicates tumor stasis, of >1% but <100% indicates tumor growth delay, and of >100% indicates tumor regression. To get uncertainty intervals (UIs) for % TGI, the fitted curve and the fitted covariance matrix were used to generate a random sample as an approximation to the distribution of % TGI. The random sample is composed of 1000 simulated realizations of the fitted-mixed model, where the % TGI has been recalculated for each realization. Here, in the reported UI is the value for which 95% of the time, the recalculated values of % TGI will fall in this region given the fitted model. The 2.5 and 97.5 percentiles of the simulated distribution were used as the […] UIs.

ETBR = target: T1, ETBR; assay: Scatchard analysis of antibody binding sites per cell with 125I-labeled Hu5E9v1-ADC; settings: 4 h on ice, estimated
Protocol: A determination of antibody binding sites per cell was performed (Scatchard analysis): The affinity constant and the number of cell surface binding sites for each antibody were estimated by incubating the melanoma cells for 4 h on ice with a fixed concentration of ^125I-labeled Hu5E9v1-ADC combined with increasing concentrations of unlabeled Hu5E9v1-ADC. The data were analyzed by nonlinear curve fitting using an analysis program method.

A2058 melanoma cell line = assay: In vitro cell killing, CellTiter-Glo cell viability; type: cell-based, human; settings: A2058 (low ETBR copy number), 5 days
Protocol: (§6) The melanoma cell lines A2058 and UACC-257X2.2 were grown in appropriate media at 37° C. and 5% CO2. To assess the effects of Hu5E9v1-ADC on cell viability, cells were plated at 1,500 per well in 50 μL, of normal growth medium in 96-well clear-bottom black plates. Twenty-four hours later, an additional 50 μL, of culture medium with serial dilutions of Hu5E9v1-ADC concentrations was added to triplicate wells. Five days later, cell survival was determined using CellTiter-Glo Luminescent Cell Viability Reagent (G7572; Promega Corporation) and with an EnVision 2101 Mutilabel Reader (Perkin-Elmer).

[2] = test system: UACC-257X2.2 melanoma cell line; assay: as above; type: cell-based, human; settings: UACC-257X2.2 (high ETBR copy number), 5 days
Protocol: as §6

A2058 melanoma xenograft = assay: In vivo efficacy, subcutaneous melanoma xenograft, tumor volume / % TGI; design: species or system mice; settings: for % TGI Single Agent Anti-ETBR ADC vs. control: A2058
Protocol: as §1, §2, §3, §4, §5
Tumors were grown to an average size of approximately 200 mm^3, whereupon animals were randomized into groups of 10 each. […] A single dose of Hu5E9v1-ADC at either 3 mpk or 6 mpk or control, a histidine buffer #8, was administered intraveneously into the tail vein on day 1 (after three doses of RG7204).
To do this, the in vivo efficacy for various combinations of Hu5E9v1-ADC and MEKi-623 and/or MEKi-973 were evaluated against A2058 and SK-MEL-23 and IPC-298 melanoma in vivo models, performed as described above in Example 4. An appropriate methylcellulose tween vehicle control (0.5% methylcellulose, 0.2% Tween-80 (MCT) or MEK inhibitor at doses of 1 mpk, 3 mpk or 7.5 mpk were administered orally once a day×21 days beginning on study Day 0. A single 3 mpk or 6 mpk dose of Hu5E9v1-ADC or control, a histidine buffer #8, was administered intraveneously (after two doses of a MEK inhibitor) via tail vein at study Day 1.

[3] = test system: COLO 829 melanoma xenograft; assay: as above; design: species or system mice
Protocol: The average tumor volumes were determined from 10 animals per group. Tumor volumes were measured twice per week until study end. Tumor volumes were measured in two dimensions (length and width) using UltraCal IV calipers (Model 54 10 111, Fred V. Fowler Company; Newton, Mass.). The following formula was used with Excel, version 12.2.8 (Microsoft; Redmond, Wash.) to calculate tumor volume: Tumor Volume (mm3)=(length×width)×0.5
To get uncertainty intervals (UIs) for % TGI, the fitted curve and the fitted covariance matrix were used to generate a random sample as an approximation to the distribution of % TGI. The random sample is composed of 1000 simulated realizations of the fitted-mixed model, where the % TGI has been recalculated for each realization. Here, in the reported UI is the value for which 95% of the time, the recalculated values of % TGI will fall in this region given the fitted model. The 2.5 and 97.5 percentiles of the simulated distribution were used as the upper and lower UIs.
The COLO 829 xenograft model was chosen as representative of medium levels of ETBR expression, further increasing the stringency of the combination studies. Tumors were grown to an average size of approximately 200 mm^3, whereupon animals were randomized into groups of 9 each. An appropriate vehicle control (Klucel LF) or G00044364.1-12 (RG7204) at doses of 10 mpk or 30 mpk were administered orally twice a day for 21 days starting on day 0.

[4] = Anti-ETBR ADC single dose 1 mg/kg
[5] = Anti-ETBR ADC single dose 3 mg/kg

Row | Molecule | % TGI Single Agent BRAFi vs. control ([1]; BRAFi Qdx21 1 mg/kg) [%] | % TGI Single Agent BRAFi vs. control ([1]; BRAFi Qdx21 6 mg/kg) [%] | % TGI Single Agent BRAFi vs. control ([1]; BRAFi Qdx21 20 mg/kg) [%] | number of Hu5E9v1-ADC binding sites (ETBR; A2058 cells) | number of Hu5E9v1-ADC binding sites (ETBR; UACC-257X2.2 cells) | cell killing by ADC titration relative to control ADC (A2058 melanoma cell line) | cell killing by ADC titration relative to control ADC [2] | % TGI Single Agent Anti-ETBR ADC vs. control [1, 4] [%] | % TGI Single Agent Anti-ETBR ADC vs. control [1, 5] [%] | single agent efficacy, tumor volume ([1]; single IV dose 1 mg/kg on day 0) | single agent efficacy, tumor volume ([1]; single IV dose of 3 and 6 mg/kg on day 0) | % TGI Single Agent Anti-ETBR ADC vs. control (A2058 melanoma xenograft; [5]) [%] | % TGI Single Agent Anti-ETBR ADC vs. control (A2058 melanoma xenograft; Anti-ETBR ADC single dose 6 mg/kg) [%] | single agent efficacy, tumor burden (A2058 melanoma xenograft; single IV dose 3 mg/kg) | single agent efficacy, tumor burden (A2058 melanoma xenograft; single IV dose 6 mpk, relative to matching dose of control ADC or vehicle) | % TGI Single Agent Anti-ETBR ADC vs. control [3, 4] [%] | % TGI Single Agent Anti-ETBR ADC vs. control [3, 5] [%]
1 | Nc1ncnc2c(C(=O)Nc3c(Cl)ccc(NS(=O)(=O)CCCF)c3F)csc12 [BRAFi-945, 4-amino-N-(6-chloro-2-fluoro-3-(3-fluoropropylsulfonamido)phenyl)thieno[3,2-d]pyrimidine-7-carboxamide] | 66 | 109 | 136 | – | – | – | – | – | – | – | – | – | – | – | – | – | –
2 | B1 | – | – | – | 1,582 sites per cell | 33,939 sites per cell | specific cell killing relative to control ADC | specific cell killing relative to control ADC | 69 | 112 | efficacy was not apparent | sustained tumor regression | 39 | 85 | Efficacy was not apparent | partial reduction in tumor burden | 31 | 33
